We go through 51 variants from article PMC8716928 (2021).

Sequences and labels used below:
B1: Fragment M1–25 of GvpM with NGFP fused at the C-terminus [Halobacterium salinarum] / GvpL with CGFP fused at the C-terminus [Halobacterium salinarum] (parent complex)
chain 1: MEPTKDETHAIVEFVDVLLRDGAVI
chain 2: MTDHRPSPEEEQTTANEERTVSNGRYLYCVVDTTSSESATLSTTGVDDNPVYVVEADGVGAVVHDCETVYETEDLEQVKRWLVTHQQVVDAASDAFGTPLPMRFDTVLEGGDASIERWLEDHYEGFRDELASFAGVWEYRINLLWDSAPFEETIADRDDRLRELRQRQQQSGAGKKFLLEKQSDQRLQELKRERRTELADQLKEAITPVVNDLTEQDTNTPLQDEHSSIEKEQIVRFAVLADEDDETALGDRLDTIVEHEGVEIRFTGPWPPYTFAPDIGK
B2: GvpM wild type, entire protein, with CGFP fused at the C-terminus [Halobacterium salinarum] / GvpL with NGFP fused at the N-terminus [Halobacterium salinarum] (parent complex)
chain 1: MEPTKDETHAIVEFVDVLLRDGAVIQADVIVTVADIPLIGISLRAAIAGMTTMTEYGLFEEWDAAHRQQSEAFTTSPTADRRED
chain 2: B1 chain 2
B3: GvpJ wild type with CGFP fused at the C-terminus [Halobacterium salinarum] / GvpL with NGFP fused at the N-terminus [Halobacterium salinarum] (parent complex)
chain 1: MSDPKPTRSQGDLAEMLEMLLDKGVVVNADIAVSVGDTELLGIELRAAIASFETAAEYGLEFPTGTDMERVESAANISPDQSDPASETQSETESTNPLSDDSTPTASTSAEETK
chain 2: B1 chain 2

The first assay covers variants of B1. Briefly: split-GFP; Hfx. volcanii transformants; parent: 65; read off a plot.
Regarding chain 1 MEPTKDETHAIVEFADVLLRDGAVI, the response is approximately 100. In the case of chain 1 MEPAKDETHAIVEFVDVLLRDGAVI, the response was approximately 70. Same read-out and setting: as for chain 1 MEPTKDETHAIVAFVDVLLRDGAVI, the figure is approximately 61. The same measure, in the same setting: as for chain 1 MEPTKDETHAIVEAVDVLLRDGAVI, the figure is approximately 57; as for chain 1 MAPTKDETHAIVEFVDVLLRDGAVI, approximately 67; as for chain 1 MEPTKDETHAAVEFVDVLLRDGAVI, approximately 84.

For chain 1 MEPTKDETHADVEFVDVLLRDGAVI, the response is approximately 110.

Regarding chain 1 MEPTKDETHAIVEFVDVLLRDAAVI, the response is approximately 86. With chain 1 MEATKDETHAIVEFVDVLLRDGAVI, the response was approximately 84.

As for chain 1 MEPTKDETHAIVEFVAVLLRDGAVI, the response is approximately 46. The same measure, in the same setting: in the case of chain 1 MEPTKDETHAIVEFVDVLLRDGDVI it was approximately 94; in that of chain 1 MEPTKDETHDIVEFVDVLLRDGAVI, approximately 58; in that of chain 1 MEPTKDETHAIVEFVDVLLRDGAAI, approximately 74. Consider chain 1 MEPTKDETHAIVEFVDVLARDGAVI, for which the response was approximately 81. As to chain 1 MEPTKDETHAIVEFVDALLRDGAVI, the response was approximately 74. On to chain 1 MEPTKDETHAIYEFVDVLLRDGAVI, for which the response was approximately 58. Same read-out and setting: in the case of chain 1 MEPTKDETAAIVEFVDVLLRDGAVI it was approximately 62; in that of chain 1 MEPTKDEAHAIVEFVDVLLRDGAVI, approximately 110. Same read-out and setting: as for chain 1 MEPTKDETHAIVEFVDVALRDGAVI, the figure is approximately 75. For the variant chain 1 MEPTKDKTHAIVEFVDVLLRDGAVI, the response was approximately 80. Consider chain 1 MEPTKDETHAIVEFVDVLLRAGAVI, for which the response was approximately 67. For chain 1 MEPTKDETHAIVEFVDVLLADGAVI, the response is approximately 54.

The variants in a further assay derive from B2. Briefly: split-GFP; Hfx. volcanii transformants; parent: 7.8; read off a plot.
For chain 1 MEPTKDETHAIVEFVDVLLRDDAVIQADVIVTVADIPLIGISLRAAIAGMTTMTEYGLFEEWDAAHRQQSEAFTTSPTADRRED, the response is approximately 9.5. On the same count and under the same terms, as for chain 1 MEPTKDETHAIVEFVDVLLRDGAVIQADVIVTVADIPLIGISLRAAAAGMTTMTEYGLFEEWDAAHRQQSEAFTTSPTADRRED, the figure is approximately 7.1. For the variant chain 1 MEPTKDETHAIVEFVDVLLRDGAVIQADVIVTVADIPLIGISLREAIAGMTTMTEYGLFEEWDAAHRQQSEAFTTSPTADRRED, the response was approximately 18. Take chain 1 MEPTKDETHAIVEFEDVLLRDGAVIQADVIVTVADIPLIGISLRAAIAGMTTMTEYGLFEEWDAAHRQQSEAFTTSPTADRRED: the response is approximately 6.4. Take chain 1 MEPTKDETHAIVEFVDVLLRDGDVIQADVIVTVADIPLIGISLRAAIAGMTTMTEYGLFEEWDAAHRQQSEAFTTSPTADRRED: the response was approximately 9.7. Consider chain 1 MEPTKDETHAIVEFVDVLLRDGAVIQADVIVTVADIPLIGISLRAEIAGMTTMTEYGLFEEWDAAHRQQSEAFTTSPTADRRED, for which the response is approximately 5.6.

The next assay covers variants of B3. Nature of the assay: split-GFP; Hfx. volcanii transformants; parent: 13; read off a plot.
For chain 1 MSDPKPTRSQGDLAEMLEMLLDRGVVVNADIAVSVGDTELLGIELRAAIASFETAAEYGLEFPTGTDMERVESAANISPDQSDPASETQSETESTNPLSDDSTPTASTSAEETK, the response was approximately 14. Turning to chain 1 MSDPKPTRSQGDLAEMLEMLLDAGVVVNADIAVSVGDTELLGIELRAAIASFETAAEYGLEFPTGTDMERVESAANISPDQSDPASETQSETESTNPLSDDSTPTASTSAEETK, the response was approximately 14. In the case of chain 1 MSDPKPTRSQGDLAEMLEMLLNKGVVVNADIAVSVGDTELLGIELRAAIASFETAAEYGLEFPTGTDMERVESAANISPDQSDPASETQSETESTNPLSDDSTPTASTSAEETK, the response is approximately 14.

On to chain 1 MSDPKPTRSQGDLAEALEMLLDKGVVVNADIAVSVGDTELLGIELRAAIASFETAAEYGLEFPTGTDMERVESAANISPDQSDPASETQSETESTNPLSDDSTPTASTSAEETK, for which the response was approximately 9.3. For the variant chain 1 MSDPKPTRSQGDLAEMLEMLLDKAVVVNADIAVSVGDTELLGIELRAAIASFETAAEYGLEFPTGTDMERVESAANISPDQSDPASETQSETESTNPLSDDSTPTASTSAEETK, the response was approximately 7.2. Same read-out and setting: in the case of chain 1 MSDPKPTRSQGDLAEMLEMLLDKGVVVNDDIAVSVGDTELLGIELRAAIASFETAAEYGLEFPTGTDMERVESAANISPDQSDPASETQSETESTNPLSDDSTPTASTSAEETK it was approximately 25; in that of chain 1 MSDPKPTRSQGDLAEMLEMLLDKGVVVNADIAVSVGDTELLGIELRAAIAAFETAAEYGLEFPTGTDMERVESAANISPDQSDPASETQSETESTNPLSDDSTPTASTSAEETK, approximately 17; in that of chain 1 MSDPKPTRSQGDLAEMLEMLLDKGVVVNADIADSVGDTELLGIELRAAIASFETAAEYGLEFPTGTDMERVESAANISPDQSDPASETQSETESTNPLSDDSTPTASTSAEETK, approximately 17. In the case of chain 1 MSDPKPTRSQGDLAEMLEMLLDKGVVVNADIAASVGDTELLGIELRAAIASFETAAEYGLEFPTGTDMERVESAANISPDQSDPASETQSETESTNPLSDDSTPTASTSAEETK, the response was approximately 18. In the case of chain 1 MSDPKPTRSQGDLAEMLEMILDKGVVVNADIAVSVGDTELLGIELRAAIASFETAAEYGLEFPTGTDMERVESAANISPDQSDPASETQSETESTNPLSDDSTPTASTSAEETK, the response is approximately 14.

With chain 1 MSDPKPTRSQGDLAAMLEMLLDKGVVVNADIAVSVGDTELLGIELRAAIASFETAAEYGLEFPTGTDMERVESAANISPDQSDPASETQSETESTNPLSDDSTPTASTSAEETK, the response was approximately 9.5. Take chain 1 MSDPKPTRSQGDLAEMLEMLLDKGVVVNADIAVSVGDTELLGIELRAAIDSFETAAEYGLEFPTGTDMERVESAANISPDQSDPASETQSETESTNPLSDDSTPTASTSAEETK: the response was approximately 17. Still for that read-out and setting: in the case of chain 1 MSDPKPTRSQGDLAEMLRMLLDKGVVVNADIAVSVGDTELLGIELRAAIASFETAAEYGLEFPTGTDMERVESAANISPDQSDPASETQSETESTNPLSDDSTPTASTSAEETK it was approximately 9.2; in that of chain 1 MSDPKPTRSQGDLAEMLQMLLDKGVVVNADIAVSVGDTELLGIELRAAIASFETAAEYGLEFPTGTDMERVESAANISPDQSDPASETQSETESTNPLSDDSTPTASTSAEETK, approximately 9.

On to chain 1 MSDPKPTRSQGDLAEMLAMLLDKGVVVNADIAVSVGDTELLGIELRAAIASFETAAEYGLEFPTGTDMERVESAANISPDQSDPASETQSETESTNPLSDDSTPTASTSAEETK, for which the response was approximately 9.5. The same measure, in the same setting: in the case of chain 1 MSDPKPTRSQGDLAEMLDMLLDKGVVVNADIAVSVGDTELLGIELRAAIASFETAAEYGLEFPTGTDMERVESAANISPDQSDPASETQSETESTNPLSDDSTPTASTSAEETK it was approximately 14. For chain 1 MSDPKPTRSQGDLAEMLEMLLDKGVVVNADIAVSVGDTELLGIELRDAIASFETAAEYGLEFPTGTDMERVESAANISPDQSDPASETQSETESTNPLSDDSTPTASTSAEETK, the response is approximately 22. Consider chain 1 MSDPKPTRSQGDLAEMLEMLLDKGVVVNADIAVSVGDTELLGIELRAAIASFETAAEYGLEFPTGTDMARVESAANISPDQSDPASETQSETESTNPLSDDSTPTASTSAEETK, for which the response is approximately 14. With chain 1 MSDPKPTRSQGDLAEMAEMLLDKGVVVNADIAVSVGDTELLGIELRAAIASFETAAEYGLEFPTGTDMERVESAANISPDQSDPASETQSETESTNPLSDDSTPTASTSAEETK, the response was approximately 14. chain 1 MSDPKPTRSQGDLAEMLEMLLDKGVVVNADIAVSVGDTELLGIELRAAAASFETAAEYGLEFPTGTDMERVESAANISPDQSDPASETQSETESTNPLSDDSTPTASTSAEETK: the response is approximately 18.

For the variant chain 1 MSDPKPTRSQGDLAEMLEELLDKGVVVNADIAVSVGDTELLGIELRAAIASFETAAEYGLEFPTGTDMERVESAANISPDQSDPASETQSETESTNPLSDDSTPTASTSAEETK, the response is approximately 7. With chain 1 MSDPKPTRSQGDLAEMLEMLLDKGVVVNADIAVSVGDTELLGIELRAAIASFETAAEEGLEFPTGTDMERVESAANISPDQSDPASETQSETESTNPLSDDSTPTASTSAEETK, the response was approximately 7.8. chain 1 MSDPKPTRSQGDLAEMLEMLADKGVVVNADIAVSVGDTELLGIELRAAIASFETAAEYGLEFPTGTDMERVESAANISPDQSDPASETQSETESTNPLSDDSTPTASTSAEETK: the response was approximately 9.
